According to paper doi:10.1101/2022.05.21.492554 (2022):

Tests used:
[1] = target: T1, BA.4/5 RBD with BAP-His tag, biotinylated (SARS-CoV-2 Omicron BA.4/5, L452R | F486V | T478K | E484A | N501Y, biotin (on the BAP tag, by co-expressed ER-localized biotin ligase BirA)); test: cell-based or functional assay
[2] = target: T1, BA.4/5 RBD with BAP-His tag, …; test: SPR; conditions: both partners purified

B1: Omi-32 Fab (Fab, V domains shown)
VH: EVQLVESGGGVVQPGRSLRLSCAASGFTFSNYGMHWVRQAPGKGLEWVAVYWYDGGNKFYADSVKGRFTISRDNSKNTLYLQMNSLRVEDTAVYYCARDTAPPDYWGQGTLVTVSS
VL: AIRMTQSPGTLSLSPGERATLSCRASQSISSSFLAWYQQKPGQAPRLLIYGASSRATGIPDRFSGSGSGTDFTLTISRLEPEDFAVYYCQQYGTSPRLTFGGGTKVDIK
With B1 the “pseudoviral neutralization of BA.4/5, fold enhancement compared to BA.2” value [1] was 77 fold and the “fold increase in on-rate against BA.2 RBD” value [2] was 5 fold.
